Source: PMC7729955 (2020)

T1: biotinylated TGPAvi (Galaxea fascicularis (coral), biotin on the Avi-tag (BirA))
T1 chain 1: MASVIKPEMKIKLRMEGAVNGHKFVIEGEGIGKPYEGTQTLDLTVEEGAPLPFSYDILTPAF
T1 chain 2: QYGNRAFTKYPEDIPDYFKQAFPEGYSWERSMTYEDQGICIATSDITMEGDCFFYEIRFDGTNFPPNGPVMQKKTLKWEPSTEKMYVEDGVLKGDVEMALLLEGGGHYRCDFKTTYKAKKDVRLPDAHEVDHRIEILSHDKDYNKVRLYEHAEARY

B1: sybody 68 (VHH)
VHH: QVQLVESGGGLVQAGGSLRLSCAASGFPVNAVTMWWYRQAPGKEREWVAAIKSQGAGTWYADSVKGRFTISRDNAKNTVYLQMNSLKPEDTAVYYCHVYVGAYRYEGRGTQVTVS
B2: sybody 66 (VHH)
VHH: QVQLVESGGGLVQAGGSLRLSCAASGFPVMENSMYWYRQAPGKEREWVAAITSQGSWTWYADSVKGRFTISRDNAKNTVYLQMNSLKPEDTAVYYCHVSVGTNYTGQGTQVTVS
B3: sybody 92 (VHH)
VHH: QVQLVESGGGLVQAGGSLRLSCAASGFPVDTQWMHWYRQAPGKEREWVAAISSTGRSTFYADSVKGRFTISRDNAKNTVYLQMNSLKPEDTAVYYCTVYVGNRYRGQGTQVTVS
B4: sybody 44 (VHH)
VHH: QVQLVESGGGLVQAGGSLRLSCAASGFPVGRASMWWYRQAPGKEREWVAAISSYGWVTAYADSVKGRFTISRDNAKNTVYLQMNSLKPEDTAVYYCEVSVGTGYRGQGTQVTVS

Biological target: T1, biotinylated TGPAvi
Test: BLI

Row | koff [s⁻¹] | Binder
1 | 0.0012 | B1
2 | 0.0013 | B2
3 | 0.00066 | B3
4 | 0.00085 | B4

Biological target: T1, biotinylated TGPAvi
Test: BLI
Remark: another data set of the same source

Row | Kd [nM] | Binder
5 | 10.4 | B1
6 | 7.8 | B2
7 | 3.3 | B3
8 | 4.4 | B4
